# According to publication PMC3777854 (Journal of clinical pharmacology, 2013):
# Entries after “also recorded” stand apart in the source; their conditions may differ.
# Columns and labels:
# [1] = Safety assessments: adverse events and laboratory abnormalities; format: in vivo, human
# CYP3A [2] = experiment: Effect of brentuximab vedotin on midazolam PK; settings: brentuximab vedotin 1.8 mg/kg; midazolam as probe substrate
# [3] = tested on: antitherapeutic antibodies (ATA); experiment: Antitherapeutic antibodies; format: in vivo, human
# CYP3A [4] = experiment: Effect of ketoconazole on brentuximab vedotin; format: in vivo, human; settings: geometric mean (%CV); for ADC Cmax: serum, n=16
# [5] = tested on: relapsed/refractory systemic ALCL; settings: 1.8 mg/kg IV every 3 weeks for up to 16 cycles; cited from earlier work
# CYP3A [6] = experiment: Effect of rifampin on brentuximab vedotin; format: in vivo, human; settings: brentuximab vedotin 1.8 mg/kg alone, geometric mean (%CV), n=11
substance,measurement,setting,value
brentuximab vedotin: ADC directed to human CD30: MMAE conjugated to the anti-CD30 antibody cAC10 through a protease-cleavable linker,Adverse events: Any event,"[1]; Ket arm, both cycles (n = 19)",19 (100) n (%)
same,Adverse events: Diarrhea,"[1]; Ket arm, both cycles (n = 19)",6 (32) n (%)
same,Adverse events: Fatigue,"[1]; Ket arm, both cycles (n = 19)",8 (42) n (%)
same,Adverse events: Headache,"[1]; Ket arm, both cycles (n = 19)",4 (21) n (%)
same,Adverse events: Nausea,"[1]; Ket arm, both cycles (n = 19)",9 (47) n (%)
same,Adverse events: Neutropenia,"[1]; Ket arm, both cycles (n = 19)",3 (16) n (%)
same,Adverse events: Pruritis,"[1]; Ket arm, both cycles (n = 19)",4 (21) n (%)
same,Adverse events: Pyrexia,"[1]; Ket arm, both cycles (n = 19)",7 (37) n (%)
same,Adverse events: Vomiting,"[1]; Ket arm, both cycles (n = 19)",6 (32) n (%)
same,Adverse events: Any event,"[1]; Ket arm, post-ket (N = 19)",16 (84) n (%)
same,Adverse events: Diarrhea,"[1]; Ket arm, post-ket (N = 19)",6 (32) n (%)
same,Adverse events: Fatigue,"[1]; Ket arm, post-ket (N = 19)",5 (26) n (%)
same,Adverse events: Headache,"[1]; Ket arm, post-ket (N = 19)",4 (21) n (%)
same,Adverse events: Nausea,"[1]; Ket arm, post-ket (N = 19)",5 (26) n (%)
same,Adverse events: Neutropenia,"[1]; Ket arm, post-ket (N = 19)",3 (16) n (%)
same,Adverse events: Pruritis,"[1]; Ket arm, post-ket (N = 19)",3 (16) n (%)
same,Adverse events: Pyrexia,"[1]; Ket arm, post-ket (N = 19)",2 (11) n (%)
same,Adverse events: Vomiting,"[1]; Ket arm, post-ket (N = 19)",6 (32) n (%)
same,Adverse events: Any event,"[1]; Ket arm, pre-ket (N = 19)",16 (84) n (%)
same,Adverse events: Diarrhea,"[1]; Ket arm, pre-ket (N = 19)",1 (5) n (%)
same,Adverse events: Fatigue,"[1]; Ket arm, pre-ket (N = 19)",4 (21) n (%)
same,Adverse events: Headache,"[1]; Ket arm, pre-ket (N = 19)",0 n (%)
same,Adverse events: Nausea,"[1]; Ket arm, pre-ket (N = 19)",5 (26) n (%)
same,Adverse events: Neutropenia,"[1]; Ket arm, pre-ket (N = 19)",0 n (%)
same,Adverse events: Pruritis,"[1]; Ket arm, pre-ket (N = 19)",1 (5) n (%)
same,Adverse events: Pyrexia,"[1]; Ket arm, pre-ket (N = 19)",6 (32) n (%)
same,Adverse events: Vomiting,"[1]; Ket arm, pre-ket (N = 19)",3 (16) n (%)
same,Adverse events: Any event,"[1]; Mid arm, both cycles (n = 16)",14 (88) n (%)
same,Adverse events: Diarrhea,"[1]; Mid arm, both cycles (n = 16)",3 (19) n (%)
same,Adverse events: Fatigue,"[1]; Mid arm, both cycles (n = 16)",3 (19) n (%)
same,Adverse events: Headache,"[1]; Mid arm, both cycles (n = 16)",4 (25) n (%)
same,Adverse events: Nausea,"[1]; Mid arm, both cycles (n = 16)",2 (13) n (%)
same,Adverse events: Neutropenia,"[1]; Mid arm, both cycles (n = 16)",1 (6) n (%)
same,Adverse events: Pruritis,"[1]; Mid arm, both cycles (n = 16)",1 (6) n (%)
same,Adverse events: Pyrexia,"[1]; Mid arm, both cycles (n = 16)",0 n (%)
same,Adverse events: Vomiting,"[1]; Mid arm, both cycles (n = 16)",2 (13) n (%)
same,Adverse events: Any event,"[1]; Rif arm, Cycle 1 (N = 21)",18 (86) n (%)
same,Adverse events: Diarrhea,"[1]; Rif arm, Cycle 1 (N = 21)",2 (10) n (%)
same,Adverse events: Fatigue,"[1]; Rif arm, Cycle 1 (N = 21)",1 (5) n (%)
same,Adverse events: Headache,"[1]; Rif arm, Cycle 1 (N = 21)",3 (14) n (%)
same,Adverse events: Nausea,"[1]; Rif arm, Cycle 1 (N = 21)",6 (29) n (%)
same,Adverse events: Neutropenia,"[1]; Rif arm, Cycle 1 (N = 21)",6 (29) n (%)
same,Adverse events: Pruritis,"[1]; Rif arm, Cycle 1 (N = 21)",3 (14) n (%)
same,Adverse events: Pyrexia,"[1]; Rif arm, Cycle 1 (N = 21)",6 (29) n (%)
same,Adverse events: Vomiting,"[1]; Rif arm, Cycle 1 (N = 21)",2 (10) n (%)
same,Adverse events: Any event,"[1]; Rif arm, Cycle 2 (N = 20)",17 (85) n (%)
same,Adverse events: Diarrhea,"[1]; Rif arm, Cycle 2 (N = 20)",3 (15) n (%)
same,Adverse events: Fatigue,"[1]; Rif arm, Cycle 2 (N = 20)",4 (20) n (%)
same,Adverse events: Headache,"[1]; Rif arm, Cycle 2 (N = 20)",2 (10) n (%)
same,Adverse events: Nausea,"[1]; Rif arm, Cycle 2 (N = 20)",2 (10) n (%)
same,Adverse events: Neutropenia,"[1]; Rif arm, Cycle 2 (N = 20)",5 (25) n (%)
same,Adverse events: Pruritis,"[1]; Rif arm, Cycle 2 (N = 20)",2 (10) n (%)
same,Adverse events: Pyrexia,"[1]; Rif arm, Cycle 2 (N = 20)",0 n (%)
same,Adverse events: Vomiting,"[1]; Rif arm, Cycle 2 (N = 20)",1 (5) n (%)
same,Adverse events: Any event,"[1]; Rif arm, both cycles (n = 21)",20 (95) n (%)
same,Adverse events: Diarrhea,"[1]; Rif arm, both cycles (n = 21)",4 (19) n (%)
same,Adverse events: Fatigue,"[1]; Rif arm, both cycles (n = 21)",5 (24) n (%)
same,Adverse events: Headache,"[1]; Rif arm, both cycles (n = 21)",5 (24) n (%)
same,Adverse events: Nausea,"[1]; Rif arm, both cycles (n = 21)",6 (29) n (%)
same,Adverse events: Neutropenia,"[1]; Rif arm, both cycles (n = 21)",7 (33) n (%)
same,Adverse events: Pruritis,"[1]; Rif arm, both cycles (n = 21)",4 (19) n (%)
same,Adverse events: Pyrexia,"[1]; Rif arm, both cycles (n = 21)",6 (29) n (%)
same,Adverse events: Vomiting,"[1]; Rif arm, both cycles (n = 21)",2 (10 n (%)
same,Adverse events: Any event,"[1]; Total, both cycles (N = 56)",53 (95) n (%)
same,Adverse events: Diarrhea,"[1]; Total, both cycles (N = 56)",13 (23) n (%)
same,Adverse events: Fatigue,"[1]; Total, both cycles (N = 56)",16 (29) n (%)
same,Adverse events: Headache,"[1]; Total, both cycles (N = 56)",13 (23) n (%)
same,Adverse events: Nausea,"[1]; Total, both cycles (N = 56)",17 (30) n (%)
same,Adverse events: Neutropenia,"[1]; Total, both cycles (N = 56)",11 (20) n (%)
same,Adverse events: Pruritis,"[1]; Total, both cycles (N = 56)",9 (16) n (%)
same,Adverse events: Pyrexia,"[1]; Total, both cycles (N = 56)",13 (23) n (%)
same,Adverse events: Vomiting,"[1]; Total, both cycles (N = 56)",10 (18) n (%)
same,treatment-emergent peripheral neuropathy,"[1]; all patients (N = 56), 2 treatment cycles",18%
same,"low hemoglobin, change from Grade 1 or 2 to ≥ Grade 3","[1]; all patients, 5 patients",9%
same,"low lymphocyte counts, change from Grade 1 or 2 to ≥ Grade 3","[1]; all patients, 5 patients",9%
same,"low platelet counts, change from Grade 1 or 2 to ≥ Grade 3","[1]; all patients, 5 patients",9%
same,"elevated ALT, change from Grade 1 or 2 to ≥ Grade 3","[1]; all patients, 6 patients",11%
same,"low white blood cell count, change from Grade 1 or 2 to ≥ Grade 3","[1]; all patients, 7 patients",13%
same,peripheral neuropathy events,"[1]; ketoconazole arm, after ketoconazole, 1 patient",5%
same,elevated AST (adverse event),"[1]; ketoconazole arm, after ketoconazole, 2 patients",11%
same,incidence of adverse events ≥ Grade 3,"[1]; ketoconazole arm, before ketoconazole dosing, 4 patients",21%
same,elevated AST (adverse event),"[1]; ketoconazole arm, before ketoconazole, 1 patient",5%
same,peripheral neuropathy events,"[1]; ketoconazole arm, before ketoconazole, 2 patients",11%
same,elevated ALT (adverse event),"[1]; ketoconazole arm, both before and after ketoconazole, 1 patient",5%
same,inhibition or induction of CYP3A in humans (conclusion),CYP3A [2],neither inhibitors nor inducers of CYP3A; also recorded: neither inhibit nor induce CYP3A
same,patients with at least 1 positive postbaseline ATA result,[3]; PK-evaluable patients in the ketoconazole arm,8 of 16
same,patients with at least 1 positive postbaseline ATA result,[3]; PK-evaluable patients in the rifampin arm,Five of 14
same,patients free of confirmed ATA at baseline but positive at one or both postbaseline timepoints,[3]; all patients,Eighteen
same,titers of all confirmed positive ATA results,[3]; with one exception (one patient 3125 prior to second dose),≤ 125
same,ADC t1/2,"CYP3A [4]; brentuximab vedotin 1.2 mg/kg alone, n=11",5.70 (33) d
same,ADC Cmax,CYP3A [4]; brentuximab vedotin 1.2 mg/kg alone,22.57 (23) μg/mL
same,ADC Cmax,CYP3A [4]; brentuximab vedotin 1.2 mg/kg with ketoconazole,22.38 (70) μg/mL
same,objective response rate,[5],86%
same,ADC t1/2,CYP3A [6],5.87 (66) d
same,ADC Cmax,CYP3A [6]; serum,36.74 (34) μg/mL
